Non-standard residues stand in square brackets, D forms with d. No end group written: not given here. ACPC = 2-aminocyclopentane carboxylic acid; β3hQ = NC(=O)CC[C@H](N)CC(=O)O; β3hS = N[C@@H](CO)CC(=O)O; β3hA = C[C@H](N)CC(=O)O
T1: human parathyroid hormone receptor 1, wild-type (hPTHR-1) (human, UniProt Q03431 27-593)
T1 sequence (looked up): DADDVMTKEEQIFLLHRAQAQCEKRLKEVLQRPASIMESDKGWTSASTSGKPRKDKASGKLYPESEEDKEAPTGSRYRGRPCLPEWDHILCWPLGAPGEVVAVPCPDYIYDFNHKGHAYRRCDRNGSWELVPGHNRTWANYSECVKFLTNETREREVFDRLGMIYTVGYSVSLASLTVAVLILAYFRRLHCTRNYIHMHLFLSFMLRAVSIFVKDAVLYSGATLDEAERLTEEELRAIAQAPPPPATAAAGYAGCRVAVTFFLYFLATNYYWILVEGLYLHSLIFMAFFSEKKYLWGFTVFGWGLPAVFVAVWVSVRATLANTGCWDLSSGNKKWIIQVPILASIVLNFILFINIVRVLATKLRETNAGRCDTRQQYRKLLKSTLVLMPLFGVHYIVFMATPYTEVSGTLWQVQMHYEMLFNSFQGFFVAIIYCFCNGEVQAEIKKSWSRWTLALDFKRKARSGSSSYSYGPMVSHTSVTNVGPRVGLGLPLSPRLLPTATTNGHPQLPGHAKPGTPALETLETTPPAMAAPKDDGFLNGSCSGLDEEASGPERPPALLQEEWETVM

T2: delNT PTHR1 (human, UniProt Q03431 27-593)
T2 sequence (looked up): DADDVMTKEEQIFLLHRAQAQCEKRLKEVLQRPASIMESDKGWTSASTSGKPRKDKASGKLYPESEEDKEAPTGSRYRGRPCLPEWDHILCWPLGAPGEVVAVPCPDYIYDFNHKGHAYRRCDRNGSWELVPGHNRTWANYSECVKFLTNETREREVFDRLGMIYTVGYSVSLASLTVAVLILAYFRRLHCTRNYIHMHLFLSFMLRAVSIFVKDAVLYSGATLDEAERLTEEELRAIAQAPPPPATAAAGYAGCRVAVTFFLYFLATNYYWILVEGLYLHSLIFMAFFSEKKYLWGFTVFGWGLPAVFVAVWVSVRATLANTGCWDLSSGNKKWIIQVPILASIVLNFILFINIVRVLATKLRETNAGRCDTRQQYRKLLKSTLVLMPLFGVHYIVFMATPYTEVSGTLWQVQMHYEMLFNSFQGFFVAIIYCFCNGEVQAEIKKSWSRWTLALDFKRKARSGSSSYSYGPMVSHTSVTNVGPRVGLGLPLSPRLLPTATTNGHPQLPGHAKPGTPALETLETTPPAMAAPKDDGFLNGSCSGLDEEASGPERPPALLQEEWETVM


What was measured:
[1] = biological target: T1, human parathyroid hormone receptor 1, …; assay: cell-based or functional assay
delNT PTHR1 = biological target: T2, delNT PTHR1; assay: cell-based or functional assay

Row | Fold PTH [1] | cAMP EC50 [1] | Fold PTH (delNT PTHR1) | cAMP EC50 (delNT PTHR1) | Binder
1 | 1.9 fold | 0.17 nM | 65 fold | 4100 nM | SVSE[ACPC]QLMHNLGKHLNSMERVEWLRKKLQDVHNF-NH2 [ACPC(5) PTH(1-34)]
2 |  | 14.6 nM |  | 6700 nM | SVSEI[β3hQ]LMHNLGKHLNSMERVEWLRKKLQDVHNF-NH2 [β3Gln(6) PTH(1-34)]
3 | 3 fold | 0.27 nM | 170 fold | 11000 nM | S[ACPC]SEIQLMHNLGKHLNSMERVEWLRKKLQDVHNF-NH2 [ACPC(2) PTH(1-34)]
4 |  | 0.06 nM |  |  | [β3hS]VSEIQLMHNLGKHLNSMERVEWLRKKLQDVHNF-NH2 [β3Ser(1) PTH(1-34)]
5 | 107 fold | 9.74 nM | 480 fold | 29000 nM | SVSEIQL[ACPC]HNLGKHLNSMERVEWLRKKLQDVHNF-NH2 [ACPC(8) PTH(1-34)]
6 | 2.2 fold | 0.2 nM | 0.4 fold | 25 nM | [β3hA]VSEIQLMHNLGKHLNSMERVEWLRKKLQDVHNF-NH2 (N-terminus assumed; SMILES CC[C@H](C)[C@H](NC(=O)[C@H](CCC(=O)O)NC(=O)[C@H](CO)NC(=O)[C@@H](NC(=O)C[C@H](C)N)C(C)C)C(=O)N[C@@H](CCC(N)=O)C(=O)N[C@@H](CC(C)C)C(=O)N[C@@H](CCSC)C(=O)N[C@@H](Cc1c[nH]cn1)C(=O)N[C@@H](CC(N)=O)C(=O)N[C@@H](CC(C)C)C(=O)NCC(=O)N[C@@H](CCCCN)C(=O)N[C@@H](Cc1c[nH]cn1)C(=O)N[C@@H](CC(C)C)C(=O)N[C@@H](CC(N)=O)C(=O)N[C@@H](CO)C(=O)N[C@@H](CCSC)C(=O)N[C@@H](CCC(=O)O)C(=O)N[C@@H](CCCNC(=N)N)C(=O)N[C@H](C(=O)N[C@@H](CCC(=O)O)C(=O)N[C@@H](Cc1c[nH]c2ccccc12)C(=O)N[C@@H](CC(C)C)C(=O)N[C@@H](CCCNC(=N)N)C(=O)N[C@@H](CCCCN)C(=O)N[C@@H](CCCCN)C(=O)N[C@@H](CC(C)C)C(=O)N[C@@H](CCC(N)=O)C(=O)N[C@@H](CC(=O)O)C(=O)N[C@H](C(=O)N[C@@H](Cc1c[nH]cn1)C(=O)N[C@@H](CC(N)=O)C(=O)N[C@@H](Cc1ccccc1)C(N)=O)C(C)C)C(C)C) [β3Ala(1) PTH(1-34)]
7 | 126 fold | 11.5 nM | 130 fold | 7800 nM | SV[ACPC]EIQLMHNLGKHLNSMERVEWLRKKLQDVHNF-NH2 [ACPC(3) PTH(1-34)]
8 | 1.6 fold | 0.15 nM | 8 fold | 500 nM | [ACPC]VSEIQLMHNLGKHLNSMERVEWLRKKLQDVHNF-NH2 [ACPC(1) PTH(1-34)]
9 | 3.7 fold | 0.34 nM | 360 fold | 22000 nM | SVSEI[ACPC]LMHNLGKHLNSMERVEWLRKKLQDVHNF-NH2 [ACPC(6) PTH(1-34)]

Source: patent US20140378382A1 (WISCONSIN ALUMNI RESEARCH FOUNDATION, published 2014)
